Non-standard residues stand in square brackets, D forms with d. No end group written: not given here. *: point of attachment. Biotin = O=C1N[C@H]2[C@H](CS[C@H]2CCCCC(=O)*)N1; sY = N[C@@H](Cc1ccc(OS(=O)(=O)O)cc1)C(=O)O
T1: Recombinant human PSGL-1(ECD)-hFc1 (R&D Systems, Cat. 3345-PS) (human, UniProt Q14242 42-305)
T1 construct: Bought; Gln42-Val295 counted on AAC50061; also called PSGL-1-Fc; PSGL-1-hFc1 chimera; not shown: human IgG1 Fc, Pro100-Lys330
T1 sequence: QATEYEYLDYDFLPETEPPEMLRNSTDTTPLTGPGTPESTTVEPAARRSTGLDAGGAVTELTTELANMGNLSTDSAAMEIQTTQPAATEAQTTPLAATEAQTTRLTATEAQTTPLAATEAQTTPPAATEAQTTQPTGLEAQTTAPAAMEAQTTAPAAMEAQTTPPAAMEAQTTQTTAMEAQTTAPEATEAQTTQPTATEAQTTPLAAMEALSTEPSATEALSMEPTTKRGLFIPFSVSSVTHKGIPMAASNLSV

T2: Biotin Y46,48,51(SO3) PSGL-1(42-62) peptide (human, sulfotyrosine at Y46, Y48 and Y51; C-terminal Lys-biotin)
T2 construct: also called fully sulfated N-terminal PSGL-1 peptide
T2 peptide: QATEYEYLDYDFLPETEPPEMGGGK

T3: Biotin PSGL-1(42-62) peptide, unmodified (human, C-terminal Lys-biotin)
T3 construct: Residues 42-62 followed by GGGK-biotin; also called WT; wild-type
T3 peptide: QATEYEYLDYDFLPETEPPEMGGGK

T4: Sulfotyr fibrinogen γ peptide (not fully specified; Y8 and Y12 sulfated (SO3); C-terminal biotin)
T4 construct: also called Fibrinogen gamma peptide; human sulfotyrosinylated fibrinogen peptide
T4 peptide: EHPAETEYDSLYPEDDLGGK

T5: Sulfotyrosine CCR2b biotin peptide (human)
T5 construct: also called CCR2b peptide
T5 peptide: TTFFD[sY]D[sY]GAPSHGGK(Biotin)

T6: Sulfotyrosine D6 biotin peptide (human)
T6 construct: also called D6 peptide
T6 peptide: ENSSFY[sY][sY]D[sY]LDEVAFGGK(Biotin)

T7: SulfoTyr C4 peptide (not fully specified; Y4, Y7 and Y9 sulfated (SO3); C-terminal biotin)
T7 construct: also called C4 alpha chain peptide; human sulfotyrosinylated C4 peptide
T7 peptide: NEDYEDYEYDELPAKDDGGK

T8: SulfoCCK biotin peptide (human)
T8 construct: also called sulfotyrosine CCK peptide
T8 peptide: SHRISDRD[sY]MGWMDFGGK(Biotin)

T9: Scrambled Y42,52,63(SO3) PSGL-1(42-62) biotin peptide (sulfotyrosine at peptide positions 1, 11 and 22; C-terminal Lys-biotin)
T9 peptide: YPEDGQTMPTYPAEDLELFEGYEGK


Assays:
[1] = target: T1, Recombinant human PSGL-1(ECD)-hFc1 (R&D …); test: blocking ELISA vs L-selectin-Fc
How it was run: (§1)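 In this competition format, antibodies were titrated in duplicate on PSGL-1-Fc-coated wells (2.5 ug/mL, pH 7.4) for 45 min at 37° C. IC50 values came from sigmoidal fits.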

[2] = target: T2, Biotin Y46,48,51(SO3) PSGL-1(42-62) …; test: ELISA, immobilized biotin peptide
How it was run: (§2)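 In this ELISA, half-well high binding plates (Corning Cat. #3690) received 3 ug/mL/25 ul per well of biotin-tagged PSGL-1 peptides covering residues 42 to 62, diluted in PBS, pH 7.4, and coated overnight at 4° C. Duplicate readings for each antibody were averaged and the average assay background was subtracted. PSGL-1 protein or peptide was the positive control.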

[3] = target: T3, Biotin PSGL-1(42-62) peptide, unmodified; test: ELISA, immobilized biotin peptide
How it was run: as §2

[4] = target: T1, Recombinant human PSGL-1(ECD)-hFc1 (R&D …); test: blocking ELISA vs P-selectin-Fc
How it was run: as §1

[5] = target: T4, Sulfotyr fibrinogen γ peptide; test: ELISA, 50 nM mAb
Procedure: (§3) Recombinant PSGL-1-hFc1 chimera protein consisting of PSGL-1's extracellular domain (ECD) served as a positive control. […] Primary antibody was added (25 ul per well) in duplicate at 50 nM in assay buffer (blocking buffer containing 0.05% Tween®20) into test and control (just blocked) wells and the plate incubated for 45 min at 37° C.

[6] = target: T5, Sulfotyrosine CCR2b biotin peptide; test: ELISA, 50 nM mAb
Procedure: as §3

[7] = target: T6, Sulfotyrosine D6 biotin peptide; test: ELISA, 50 nM mAb
Procedure: as §3

[8] = target: T7, SulfoTyr C4 peptide; test: ELISA, 50 nM mAb
Procedure: as §3

[9] = target: T8, SulfoCCK biotin peptide; test: ELISA, 50 nM mAb
Procedure: as §3

[10] = target: T9, Scrambled Y42,52,63(SO3) PSGL-1(42-62) …; test: ELISA, immobilized biotin peptide
How it was run: as §2

Binder	% max Block [1] [%]	IC50 [1] [nM]	EC50 [2] [nM]	EC50 [3] [nM]	% max Block [4] [%]	IC50 [4] [nM]	binding normalized to PSGL-1 [5]	binding normalized to PSGL-1 [6]	binding normalized to PSGL-1 [7]	binding normalized to PSGL-1 [8]	binding result [8]	binding result [5]	binding result [6]	binding result [7]	A450nm, 20 nM mAb [2] [A450nm]	binding normalized to PSGL-1 [9]	binding result [10]
20I15 (antibody, V domains shown, From mouse immunisation; only variable domains given; also called 20115) VH: EVKLVESGGGLVQPGGSLSLSCAASGFTFTDYYMSWVRQPPGKALEWLGFIRNKANGYTTEYSASVKGRFTISRDNSQSILYLQMNALRAEDSATYYCARTYLRRGYFDVWGTGTTVTVSS VL: DIVLTQSPASLAVSLGQRATISCRASKSVSTSGYSYMHWFQQKPGQPPKLLIYLASNLESGVPARFSGSGSGTDFTLNIHPVEEEDAATYYCQHSRELPLTFGAGTKLELK	65	20	0.485	~300	52	100	0.37	0.21	0.35	0.34	–	–	–	–	–	–	–
18F02 (antibody, V domains shown, From mouse immunisation; only variable domains given) VH: QVQLQQPGAELVKPGASVKLSCKASGYTFTSYWMHWVKQRPGQGLEWIGMIHPNSGRTNYNEKFKSKATLTVDKSSSTAYMQLSSLTSEDSAVYYCARSDYWGQGTTLTVSS VL: DIVMTQAAFSNPVTLGTSASISCRSSKSLLHSDGITYLYWFLQRPGQSPQLLIYRMSNLASGVPDRFSGSGSGTDFTLRISRVEAEDVGVYYCAQMLEFPRTFGGGTKLEIK	100	10	0.658	0.702	100	6	0.21	0.03	0.09	–	no binding (tested: 50 nM)	–	–	–	–	–	–
19I01 (antibody, V domains shown, From mouse immunisation; only variable domains given; also called 19101) VH: EVQLVESGGGLVKPGGSRKLSCAASGFTFSDYGMHWVRQAPEKGLEWVAYISSGSSTIYYADTVKGRFTISRDNAKNTLFLQMTSLRSEDTAMYYCARGVDGYWGQGTTLTVSS VL: DVVMTQTPLSLPVSLGDQASISCRSSQSLVHSNGNTYLHWYLQKPGQSPKFLIYKVSNRFSGVPDRFSGSGSGTDFTLKISRVEAEDLGVYFCSQTTHVPLTFGAGTKLELK	100	5	0.844	0.844	100	4	-0.01	0.02	0.02	-0.01	no binding (tested: 50 nM)	no binding (tested: 50 nM)	no binding (tested: 50 nM)	no binding (tested: 50 nM)	–	–	–
16L15 (antibody, V domains shown, From mouse immunisation; only variable domains given) VH: DVKLVESGGGLVKLGGSLKLSCAASGFTFSSYYMSWVRQTPEKRLEWVATISNGGGSTYYPDSVKDRFTISRDNAKNTLYLQMSSLNSEDTAVYYCAKPLYYSNPWFAYWGQGTLVTVSA VL: DVLLTQTPLSLPVSLGDQASISCRSSQSIVHSNGNTYLEWYLQKPGQSPKLLIYKVSNRFSGVPDRFSGSGSGTDFTLKISRVEAEDLGVYYCFQGSHVPRTFGGGTKLEIK	100	9	0.699	0.695	100	10	0.11	0.03	0.06	0.01	no binding (tested: 50 nM)	–	–	–	–	–	–
2E12 (antibody, V domains shown, Mouse hybridoma mAb; only variable domains given) VH: QVQLQQSGAELARPGASVKLSCKASGYTFTNYGLNWVKQRTGQGLEWIGEIYPRSGNTYYNEKFKGKATLTADKSSSTAYMQLSSLTSEDSAVYFCATEGAYWGQGTLVTVSA VL: DIVMTQTPLTLSVTIGQPASISCKSSQSLLHGNGKTYLNWLLQRPGQSPKLLIYLVSKLESGIPDRFSGSGSGTDFTLEISRVEAEDLGIYYCLQSTHFPRTFGGGTKLEIK	0	–	0.87	0.694	0	–	0.76	0.03	0.06	0.03	–	–	–	–	–	–	–
10F01 (antibody, IgG4, V domains shown) VH: EVQLVQSGGGLVQPGGSLRLSCAASGFTFSSYAMSWVRQAPGKGLEWVSALRGGDGGTYHADSVKGRFTISGDSSKNTLYLQMNSLRAEDTAVYYCARRMVGAAYAFDIWGQGTMVTVSS VL: LPVLTQPHSVSESPGKTVTISCTRSSGSIADNFVQWYRQRPGSAPTTVIYEGDQRPSGVPGRFSGSIDSSSNSASLTISGLQTDDEADYYCQSFDSYNRRTHVVFGGGTKLTVL	100	6	–	–	100	4	0.06	0.03	0.04	0.17	–	–	–	–	2.39	0.03	–
03D07 (antibody, IgG4, V domains shown) VH: EVKLLESGGGLVQPGGSLRLSCAASGFTFSSYALSWVRQAPGKGLEWVSAISGSGGNTYYADSVKGRFTISRDNSKNTLYLQMNSLRAEDTAVYYCAKVVGATNYWGQGTLVTVSS VL: DIVMTQTPLSLPVTLGQPASISCRSSQSLVYSDGHTYLSWFHQRPGQSPRRLIYKVSIRDSGVPDRFSGSGSGTDFTLKISRVEAEDVGVYYCMQRLQIPLTFGGGTKVEIK	100	6	–	> 500	100	5	0.49	0.16	0.28	0.71	–	–	–	–	2.73	0.08	no binding (tested: 20 nM)
